Measured values from publication PMC12045711.

Key:
[1] = molecular target: Thermoproteota archaeon TasR (TaTasR), TIGR-associated protein with an N-terminal RuvC nuclease domain and a Nop domain (Thermoproteota archaeon isolate LB_CRA_1); assay: cryo-EM structure; TasR tigRNA1 RNP (16 uM) mixed with a 60-bp DNA target (8 uM) in 29 mM HEPES-KOH pH 7.9, 149 mM KCl, 5 mM MgCl2; 42°C for 1 hour, then on ice for 3 hours; post-cleavage product complex
[2] = molecular target: Thermoproteota archaeon TasR (TaTasR) (Thermoproteota archaeon isolate LB_CRA_1); assay: cryo-EM structure; TasR tigRNA1 RNP (16 uM) mixed with 60-bp target DNA (8 uM), 29 mM HEPES-KOH pH 7.9, 149 mM KCl, 5 mM MgCl2, 42 C for 1 h; 2D classification of the final particles with a large box and a 300 A circular mask

Row | Substance | stoichiometry N [1] | stoichiometry N [2]
1 | Thermoproteota archaeon TasR (TaTasR), TIGR-associated protein with an N-terminal RuvC nuclease domain and a Nop domain (enzyme) | 2 | 
2 | Thermoproteota archaeon TasR (TaTasR) (enzyme) |  | 2
